According to patent US20230340152A1 (published 2023):
Where a chain is given by its changes, count along the chain named. Names may count otherwise.

T1: Human CD73 ECD (human, UniProt P21589 27-549)
T1 construct: Biotinylated in some assays; also called human CD73 extracellular domain; huCD73
T1 sequence: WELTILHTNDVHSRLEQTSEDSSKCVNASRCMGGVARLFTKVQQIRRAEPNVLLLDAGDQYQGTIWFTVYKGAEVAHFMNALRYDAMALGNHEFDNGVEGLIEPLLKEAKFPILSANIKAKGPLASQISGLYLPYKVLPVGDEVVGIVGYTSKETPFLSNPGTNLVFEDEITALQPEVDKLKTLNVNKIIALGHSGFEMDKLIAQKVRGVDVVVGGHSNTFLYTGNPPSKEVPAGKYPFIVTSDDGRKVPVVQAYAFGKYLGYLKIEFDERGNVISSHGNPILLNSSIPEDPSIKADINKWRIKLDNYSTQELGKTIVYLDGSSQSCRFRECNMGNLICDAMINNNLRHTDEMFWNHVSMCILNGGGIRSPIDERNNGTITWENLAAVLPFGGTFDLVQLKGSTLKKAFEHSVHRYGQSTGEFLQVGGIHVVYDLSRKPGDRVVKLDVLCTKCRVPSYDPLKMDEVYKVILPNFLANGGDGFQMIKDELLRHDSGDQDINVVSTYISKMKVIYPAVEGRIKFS

T2: Cynomolgus CD73 ECD (cynomolgus, UniProt A0A2K5V5U7 27-549)
T2 construct: extracellular domain; also called cyno CD73
T2 sequence: T1 sequence with M199T, T350A, V466I

T3: Murine CD73 ECD (murine, UniProt Q61503 29-551, limits assumed)
T3 construct: extracellular domain; In-house recombinant ECD; also called murine CD73 extracellular domain; muCD73
T3 sequence (looked up): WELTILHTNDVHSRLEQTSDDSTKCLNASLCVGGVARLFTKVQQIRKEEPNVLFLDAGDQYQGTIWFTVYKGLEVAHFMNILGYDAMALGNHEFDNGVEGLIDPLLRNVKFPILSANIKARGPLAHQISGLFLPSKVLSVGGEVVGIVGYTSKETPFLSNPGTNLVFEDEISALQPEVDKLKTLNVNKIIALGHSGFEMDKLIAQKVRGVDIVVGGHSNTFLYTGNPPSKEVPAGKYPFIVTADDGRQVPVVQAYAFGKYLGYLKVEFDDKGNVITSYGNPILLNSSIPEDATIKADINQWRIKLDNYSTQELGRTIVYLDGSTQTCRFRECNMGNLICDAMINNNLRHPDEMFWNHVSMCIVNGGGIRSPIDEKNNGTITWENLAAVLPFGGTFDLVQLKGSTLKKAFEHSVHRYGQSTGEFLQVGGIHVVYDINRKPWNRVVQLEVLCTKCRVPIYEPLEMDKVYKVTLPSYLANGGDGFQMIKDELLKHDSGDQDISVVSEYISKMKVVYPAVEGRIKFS

T4: Human CD73 on cells (MDA-MB-231, Jurkat CD73 knock-in, NCI-H322) (human, UniProt P21589 27-549)
T4 sequence: T1 sequence

T5: Murine CD73 on cells (4T1, Jurkat mCD73 knock-in) (murine, UniProt Q61503 29-551)
T5 construct: whole, on cells; also called 4T1 (murine)
T5 sequence (looked up): T3 sequence (looked up)

T6: Cynomolgus CD73 on MK-1 cells (cynomolgus, UniProt A0A2K5V5U7 27-549)
T6 construct: whole, on cells; also called MK-1 (cyno)
T6 sequence: T1 sequence with M199T, T350A, V466I

B1: CD730010 (antibody, V domains shown)
VH: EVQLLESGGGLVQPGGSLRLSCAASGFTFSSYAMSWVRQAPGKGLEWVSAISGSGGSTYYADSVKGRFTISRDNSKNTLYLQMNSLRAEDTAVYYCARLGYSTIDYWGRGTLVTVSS
VL: LPVLTQPPSVSGTPGQRVTISCSGSLSNIGRNPVNWYKQVPGTAPKLLIYLNNQRPSGVPDRFSGSKSGTSASLAISGLQSEDEADYYCATWDDSLNGWLFGGGTKLTVL
notes: IgG1-TM format (L234F, L235E, P331S); also called CD730010 antibody; clone 10
B2: Clone D3 Fab (Fab, V domains shown)
VH: EVQLLESGGGLVQPGGSLRLSCAASGFTFSSYAYSWVRQAPGKGLEWVSAISGSGGRTYYADSVKGRFTISRDNSKNTLYLQMNSLRAEDTAVYYCARLGYSTIDLWGRGTLVTVSS
VL: B1 VL with L1Q, P2S, V10A, K38Q, V40L, N52D, Q54L, P56L, N97I
notes: Bacterial Fab from the combinatorial library
B3: C1 (IgG1-TM) (antibody, V domains shown)
VH: B2 VH with R57S, L106K
VL: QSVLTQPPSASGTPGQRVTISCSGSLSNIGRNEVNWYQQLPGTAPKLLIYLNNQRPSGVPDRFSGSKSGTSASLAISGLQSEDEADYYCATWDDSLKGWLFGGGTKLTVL
notes: IgG1-TM format; also called clone 10 C1
B4: CD730002 (antibody, V domains shown)
VH: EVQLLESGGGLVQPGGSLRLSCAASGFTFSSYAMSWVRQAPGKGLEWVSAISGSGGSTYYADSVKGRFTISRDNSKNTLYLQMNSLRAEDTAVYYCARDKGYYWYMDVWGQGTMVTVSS
VL: QSVLTQPPSVSVSPGQTATITCSGDKVGDKYASWYQQKPGQSPVLVIYEDTKRPSRIPERFSGSNSGNTATLTISGTQALDEADYFCQAWDTSFWVFGGGTKLTVL
notes: IgG1-TM format; also called CD730002 antibody; clone 2
B5: CD730002 SGMY (antibody, IgG1, V domains shown)
VH: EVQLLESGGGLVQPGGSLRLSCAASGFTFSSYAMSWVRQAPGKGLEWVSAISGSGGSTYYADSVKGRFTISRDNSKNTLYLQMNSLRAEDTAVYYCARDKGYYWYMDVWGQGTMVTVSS
VL: B4 VL with T19S, R56G, L80M, F86Y
notes: IgG1-TM; non-germlined VH, fully germlined VL (S20, G57, M81, Y87); also called Clone 2 SGMY
B6: CD730002 2C5 (antibody, V domains shown)
VH: EVQLLESGGGLVQPGGSLRLSCAASGFTFSSYAMSWVRQAPGKGLEWVSAISGSGGSTYYADSVKRRFTISRDNSKNTLYLQMNSLRAEDTAVYYCARDKGYYWYMDVWGQGTMVTVSS
VL: B4 VL with T19S, P54L, R56G, L80M, F86Y
notes: IgG1-TM format; also called clone 2C5 antibody
B7: 73combo1 (C1+GRVE+HPT) (antibody, V domains shown)
VH: B2 VH with R57S, S102G, T103R, I104V, L106E
VL: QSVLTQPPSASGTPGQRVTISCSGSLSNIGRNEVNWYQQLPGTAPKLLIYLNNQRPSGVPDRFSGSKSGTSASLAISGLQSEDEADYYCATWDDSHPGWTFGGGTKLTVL
notes: IgG1-TM format; also called 73combol; clone 10 combo1

What was measured:
Human CD73 ECD [1] = target: T1, Human CD73 ECD; test: binding assay, format not stated
Cynomolgus CD73 ECD [2] = target: T2, Cynomolgus CD73 ECD; test: binding assay, format not stated
Murine CD73 ECD [3] = target: T3, Murine CD73 ECD; test: binding assay, format not stated
Human CD73 ECD [4] = target: T1, Human CD73 ECD; test: SPR (Proteon)
Cynomolgus CD73 ECD [5] = target: T2, Cynomolgus CD73 ECD; test: SPR (Proteon)
Murine CD73 ECD [6] = target: T3, Murine CD73 ECD; test: SPR (Proteon)
Human CD73 ECD [7] = target: T1, Human CD73 ECD; test: cell-based or functional assay
[8] = target: T4, Human CD73 on cells (MDA-MB-231, Jurkat …); test: cell-based or functional assay
[9] = target: CD73 (species and format not stated); test: binding assay not stated
[10] = target: T5, Murine CD73 on cells (4T1, Jurkat mCD73 …); test: flow cytometry on cells
[11] = target: T4, Human CD73 on cells (MDA-MB-231, Jurkat …); test: flow cytometry on cells
Human CD73 ECD [12] = target: T1, Human CD73 ECD; test: capture ELISA and direct ELISA, normalized Fab supernatants
Murine CD73 ECD [13] = target: T3, Murine CD73 ECD; test: as above
[14] = target: T6, Cynomolgus CD73 on MK-1 cells; test: flow cytometry on cells
[15] = target: T5, Murine CD73 on cells (4T1, Jurkat mCD73 …); test: cell-based or functional assay
[16] = target: T4, Human CD73 on cells (MDA-MB-231, Jurkat …); test: cell-based or functional assay; remark: listed apart in the source
Murine CD73 ECD [17] = target: T3, Murine CD73 ECD; test: binding to recombinant murine CD73 by flow cytometry, IgG1-TM
Human CD73 ECD [18] = target: T1, Human CD73 ECD; test: binding to recombinant human CD73 by flow cytometry, IgG1-TM
[19] = target: T4, Human CD73 on cells (MDA-MB-231, Jurkat …); test: flow cytometry on MDA-MB-231 cells, IgG from 293F cells

Row | Binder | Kd (Human CD73 ECD [4]) [nM] | Kd (Cynomolgus CD73 ECD [5]) [nM] | Kd (Murine CD73 ECD [6]) [nM] | Kd [10] [nM] | Kd [11] [nM] | Kd [14] [nM] | FabZAP internalization, EC50, 4T1 [15] [nM] | FabZAP internalization, maximum toxicity, 4T1 [15] [%] | FabZAP internalization, EC50, MDA-MB-231 [16] [nM] | FabZAP internalization, maximum toxicity, MDA-MB-231 [16] [%] | further results
1 | B1 | 3.58 | 1.92 | 2.47 | 6.1 | 8 | – | – | – | – | – | 1/EC50 (Human CD73 ECD [1]): 0.0034 nM⁻¹; 1/EC50 (Cynomolgus CD73 ECD [2]): 0.0033 nM⁻¹; 1/EC50 (Murine CD73 ECD [3]): 0.0024 nM⁻¹; Enzyme Inhibition, rCD73, 1/EC50 (nM) (Human CD73 ECD [7]): 0.0062 nM⁻¹; Enzyme Inhibition, MDA-MB-231, 1/EC50 (nM) [8]: 0.33 nM⁻¹; Internalization, MDA-MB-231, 1/EC50 (nM) [8]: 0.0062 nM⁻¹; EC50 [9]: 69 nM
2 | B2 | – | – | – | – | – | – | – | – | – | – | binding result (Human CD73 ECD [12]): binds; binding result (Murine CD73 ECD [13]): binds
3 | B3 | 0.029 | 0.012 | 0.006 | 0.095 | 0.179 | 0.16 | – | – | – | – | –
4 | B4 | 0.007 | 0.015 | 0.04 | 0.05 | 0.052 | 0.052 | 0.206 | 83 | 0.0071 | 95 | 1/EC50 (Human CD73 ECD [1]): 0.1 nM⁻¹; 1/EC50 (Cynomolgus CD73 ECD [2]): 0.2 nM⁻¹; 1/EC50 (Murine CD73 ECD [3]): 0.024 nM⁻¹; Enzyme Inhibition, rCD73, 1/EC50 (nM) (Human CD73 ECD [7]): 0.021 nM⁻¹; Enzyme Inhibition, MDA-MB-231, 1/EC50 (nM) [8]: 12 nM⁻¹; Internalization, MDA-MB-231, 1/EC50 (nM) [8]: 0.021 nM⁻¹
5 | B5 | – | – | – | – | – | – | – | – | – | – | binding result (Murine CD73 ECD [17]): binds; binding result (Human CD73 ECD [18]): binds
6 | B6 | 0.009 | 0.009 | 0.022 | 0.055 | 0.084 | 0.063 | 0.173 | 82 | 0.0091 | 98 | fold lower EC50 than parental CD730002SGMY [19]: 3 fold
7 | B7 | 0.007 | 0.008 | 0.002 | 0.15 | 0.157 | 0.09 | 0.0331 | 97 | 0.0038 | 97 | –
